According to patent publication US10280205B2, “Method for treating cancer with an activated T lymphocyte that selectively recognizes a cancer cell consisting of specific peptide” (immatics biotechnologies GmbH, priority 2015, dated 2019):

Biological target: HLA-A*02:01 (Homo sapiens, UniProt P04439, D140Y/D185E/D98H/E176V/E277Q/G131W/G231S/I119V/I121R/I166T/I218V/L300P/L318F/N151K/N90K/P208A/P217A/Q86G/Q94H/R138H/R169H/T345S)
Assay: MHC binding assay: UV-ligand exchange with beta2m ELISA (exchange yield)
Conditions: binding to HLA-A*02:01, β2m ELISA
Method in brief: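 Peptide–HLA-A*02:01 complexes formed by UV-induced exchange of a photocleavable ligand for the test peptide. Exchange products diluted 100-fold and captured on streptavidin-coated plates. Stabilized complexes detected with HRP anti-β2m (1 h, 37° C.) and TMB, A450; exchange yield reported.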

547 (TLDITPHTV; listed as Homo sapiens) [compound 547]
Peptide exchange (MHC class I binding score, peptide exchange yield): “+++” (≥50 = +++)

548 (ALWENPESGEL; listed as Homo sapiens) [compound 548]
Peptide exchange (MHC class I binding score, peptide exchange yield): “++” (≥20% = ++)

549 (AMLENASDIKL; listed as Homo sapiens) [compound 549]
Peptide exchange (MHC class I binding score, peptide exchange yield): “+++” (≥50 = +++)

550 (FLYDEIEAEVNL; listed as Homo sapiens) [compound 550]
Peptide exchange (MHC class I binding score, peptide exchange yield): “+++” (≥50 = +++)

551 (KLYESLLPFA; listed as Homo sapiens) [compound 551]
Peptide exchange (MHC class I binding score, peptide exchange yield): “+++” (≥50 = +++)

552 (GLLDLPFRVGV; listed as Homo sapiens) [compound 552]
Peptide exchange (MHC class I binding score, peptide exchange yield): “++++” (≥75% = ++++)

553 (SLLNQDLHWSL; listed as Homo sapiens) [compound 553]
Peptide exchange (MHC class I binding score, peptide exchange yield): “++++” (≥75% = ++++)

554 (LLMPSSEDLLL; listed as Homo sapiens) [compound 554]
Peptide exchange (MHC class I binding score, peptide exchange yield): “+++” (≥50 = +++)

555 (YVLEGLKSV; listed as Homo sapiens) [compound 555]
Peptide exchange (MHC class I binding score, peptide exchange yield): “+++” (≥50 = +++)

556 (FLTDLEDLTL; listed as Homo sapiens) [compound 556]
Peptide exchange (MHC class I binding score, peptide exchange yield): “+++” (≥50 = +++)

557 (KLYDDMIRL; listed as Homo sapiens) [compound 557]
Peptide exchange (MHC class I binding score, peptide exchange yield): “+++” (≥50 = +++)

558 (GLLENIPRV; listed as Homo sapiens) [compound 558]
Peptide exchange (MHC class I binding score, peptide exchange yield): “+++” (≥50 = +++)

559 (VTVPPGPSL; listed as Homo sapiens) [compound 559]
Peptide exchange (MHC class I binding score, peptide exchange yield): “++” (≥20% = ++)

560 (ALWDIETGQQTTT; listed as Homo sapiens) [compound 560]
Peptide exchange (MHC class I binding score, peptide exchange yield): “+++” (≥50 = +++)

561 (YLQLTQSEL; listed as Homo sapiens) [compound 561]
Peptide exchange (MHC class I binding score, peptide exchange yield): “+++” (≥50 = +++)

562 (YLEELPEKLKL; listed as Homo sapiens) [compound 562]
Peptide exchange (MHC class I binding score, peptide exchange yield): “+++” (≥50 = +++)

563 (WLLPYNGVTV; listed as Homo sapiens) [compound 563]
Peptide exchange (MHC class I binding score, peptide exchange yield): “+++” (≥50 = +++)

564 (TVTNAVVTV; listed as Homo sapiens) [compound 564]
Peptide exchange (MHC class I binding score, peptide exchange yield): “+++” (≥50 = +++)

565 (ALQETPTSV; listed as Homo sapiens) [compound 565]
Peptide exchange (MHC class I binding score, peptide exchange yield): “++” (≥20% = ++)

566 (VIADGGIQNV; listed as Homo sapiens) [compound 566]
Peptide exchange (MHC class I binding score, peptide exchange yield): “++” (≥20% = ++)

567 (SLLPLDDIVRV; listed as Homo sapiens) [compound 567]
Peptide exchange (MHC class I binding score, peptide exchange yield): “+++” (≥50 = +++)

568 (TLYDIAHTPGV; listed as Homo sapiens) [compound 568]
Peptide exchange (MHC class I binding score, peptide exchange yield): “++++” (≥75% = ++++)

569 (KLVDRTWTL; listed as Homo sapiens) [compound 569]
Peptide exchange (MHC class I binding score, peptide exchange yield): “+++” (≥50 = +++)

570 (ALANQIPTV; listed as Homo sapiens) [compound 570]
Peptide exchange (MHC class I binding score, peptide exchange yield): “++” (≥20% = ++)

571 (LLLTTIPQI; listed as Homo sapiens) [compound 571]
Peptide exchange (MHC class I binding score, peptide exchange yield): “+++” (≥50 = +++)

572 (ALADLIEKELSV; listed as Homo sapiens) [compound 572]
Peptide exchange (MHC class I binding score, peptide exchange yield): “+++” (≥50 = +++)

573 (ILVANAIVGV; listed as Homo sapiens) [compound 573]
Peptide exchange (MHC class I binding score, peptide exchange yield): “+++” (≥50 = +++)

574 (YLLQEPPRTV; listed as Homo sapiens) [compound 574]
Peptide exchange (MHC class I binding score, peptide exchange yield): “++” (≥20% = ++)

575 (YLISQVEGHQV; listed as Homo sapiens) [compound 575]
Peptide exchange (MHC class I binding score, peptide exchange yield): “+++” (≥50 = +++)

576 (ILLNNSGQIKL; listed as Homo sapiens) [compound 576]
Peptide exchange (MHC class I binding score, peptide exchange yield): “++++” (≥75% = ++++)

577 (VMFEDGVLMRL; listed as Homo sapiens) [compound 577]
Peptide exchange (MHC class I binding score, peptide exchange yield): “+++” (≥50 = +++)

578 (FLDPGGPMMKL; listed as Homo sapiens) [compound 578]
Peptide exchange (MHC class I binding score, peptide exchange yield): “+++” (≥50 = +++)

579 (NLMEMVAQL; listed as Homo sapiens) [compound 579]
Peptide exchange (MHC class I binding score, peptide exchange yield): “++” (≥20% = ++)

580 (LLMENAERV; listed as Homo sapiens) [compound 580]
Peptide exchange (MHC class I binding score, peptide exchange yield): “++” (≥20% = ++)

582 (TLCDVILMV; listed as Homo sapiens) [compound 582]
Peptide exchange (MHC class I binding score, peptide exchange yield): “+++” (≥50 = +++)

583 (ILANDGVLLAA; listed as Homo sapiens) [compound 583]
Peptide exchange (MHC class I binding score, peptide exchange yield): “+++” (≥50 = +++)

584 (ALAEVAAMENV; listed as Homo sapiens) [compound 584]
Peptide exchange (MHC class I binding score, peptide exchange yield): “+++” (≥50 = +++)

585 (ALWDLAADKQTL; listed as Homo sapiens) [compound 585]
Peptide exchange (MHC class I binding score, peptide exchange yield): “++++” (≥75% = ++++)

586 (KLKPGDLVGV; listed as Homo sapiens) [compound 586]
Peptide exchange (MHC class I binding score, peptide exchange yield): “+++” (≥50 = +++)

587 (VMNDRLYAI; listed as Homo sapiens) [compound 587]
Peptide exchange (MHC class I binding score, peptide exchange yield): “+++” (≥50 = +++)

588 (SLLPLSHLV; listed as Homo sapiens) [compound 588]
Peptide exchange (MHC class I binding score, peptide exchange yield): “+++” (≥50 = +++)

589 (KLYPQLPAEI; listed as Homo sapiens) [compound 589]
Peptide exchange (MHC class I binding score, peptide exchange yield): “+++” (≥50 = +++)

590 (SLIEKLWQT; listed as Homo sapiens) [compound 590]
Peptide exchange (MHC class I binding score, peptide exchange yield): “++” (≥20% = ++)

591 (SMAELDIKL; listed as Homo sapiens) [compound 591]
Peptide exchange (MHC class I binding score, peptide exchange yield): “+++” (≥50 = +++)

592 (RLLSAAENFL; listed as Homo sapiens) [compound 592]
Peptide exchange (MHC class I binding score, peptide exchange yield): “+++” (≥50 = +++)

593 (GLPRFGIEMV; listed as Homo sapiens) [compound 593]
Peptide exchange (MHC class I binding score, peptide exchange yield): “+++” (≥50 = +++)

594 (IMLKGDNITL; listed as Homo sapiens) [compound 594]
Peptide exchange (MHC class I binding score, peptide exchange yield): “+++” (≥50 = +++)

595 (VLLSIYPRV; listed as Homo sapiens) [compound 595]
Peptide exchange (MHC class I binding score, peptide exchange yield): “+++” (≥50 = +++)

596 (ALLDQTKTLAESAL; listed as Homo sapiens) [compound 596]
Peptide exchange (MHC class I binding score, peptide exchange yield): “+++” (≥50 = +++)

597 (KLLEGQVIQL; listed as Homo sapiens) [compound 597]
Peptide exchange (MHC class I binding score, peptide exchange yield): “+++” (≥50 = +++)
